# Columns and labels:
# [1] = tested on: 10-mer (SEQ ID NO:13) NYNFFPRKPK
# [2] = tested on: 19-mer (SEQ ID NO:11) PRCGNPDVANYNFFPRKPK
# [3] = tested on: 9-mer (SEQ ID NO:12) PRCGNPDVA
# Active MMP-9 enzyme, sequence (chain, as listed by the source): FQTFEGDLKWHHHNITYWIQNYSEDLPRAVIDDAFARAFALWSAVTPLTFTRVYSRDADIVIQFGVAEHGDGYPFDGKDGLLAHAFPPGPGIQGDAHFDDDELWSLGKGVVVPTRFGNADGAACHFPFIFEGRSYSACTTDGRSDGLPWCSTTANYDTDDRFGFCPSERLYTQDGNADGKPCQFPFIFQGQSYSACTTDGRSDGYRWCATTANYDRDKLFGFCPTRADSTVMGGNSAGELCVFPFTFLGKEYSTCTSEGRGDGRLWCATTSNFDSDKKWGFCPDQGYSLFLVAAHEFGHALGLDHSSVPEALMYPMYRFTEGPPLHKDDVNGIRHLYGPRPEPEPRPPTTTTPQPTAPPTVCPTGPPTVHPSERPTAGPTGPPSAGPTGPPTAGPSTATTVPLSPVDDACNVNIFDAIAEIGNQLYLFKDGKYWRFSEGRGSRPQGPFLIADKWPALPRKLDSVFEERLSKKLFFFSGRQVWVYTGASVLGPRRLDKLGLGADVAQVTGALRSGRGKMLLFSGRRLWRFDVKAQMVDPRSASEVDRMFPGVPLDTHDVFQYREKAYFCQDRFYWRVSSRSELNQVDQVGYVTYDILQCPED
substance,measurement,setting,value
Active MMP-9 enzyme,extended time course of MMP-9 catalyzed hydrolysis of collagen,[1],The 10-mer is less effective at preventing the destruction of collagen at long time points (FIG. 9) than is the 9-mer (FIG. 10)
same,extended time course of MMP-9 catalyzed hydrolysis of collagen,[2],the 19-mer effectively inhibits the MMP-9 catalyzed hydrolysis of collagen to beyond 1000 minutes
same,extended time course of MMP-9 catalyzed hydrolysis of collagen,[3],The 10-mer is less effective at preventing the destruction of collagen at long time points (FIG. 9) than is the 9-mer (FIG. 10)
